Results reported in patent US20250340662A1.

Assays:
FcyR1 = assay: SPR
[1] = molecular target: Human CD44v6 iso4-Fc (human) (UniProt P16070); assay: SPR SCK, antibody captured via anti-kappa, CD44v6-Fc injected; apparent KD
[2] = molecular target: Human CD44v6 iso4-Fc (human) (UniProt P16070); assay: SPR SCK, antibody captured via anti-kappa, CD44v6-Fc injected
Human v6-peptide (human) [3] = molecular target: T1, Human v6-peptide (human); assay: SPR SCK, biotin-peptide on SA chip, antibody injected
T1 sequence (peptide, N-terminal biotin): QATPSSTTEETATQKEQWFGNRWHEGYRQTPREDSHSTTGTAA

Human v6-peptide (human) [4] = molecular target: T1, Human v6-peptide (human); assay: SPR SCK, biotin-peptide on SA chip, antibody injected; apparent KD
[5] = molecular target: CD44v6 on cultured cancer cells (BHT-101, ACT-1, A431) (human) (UniProt P16070); assay: LigandTracer, 177Lu-antibody on A431 cells

Chain of Human CD44v6 iso4-Fc (human) (P16070 other isoform, or with tags, fused parts or gaps limits assumed): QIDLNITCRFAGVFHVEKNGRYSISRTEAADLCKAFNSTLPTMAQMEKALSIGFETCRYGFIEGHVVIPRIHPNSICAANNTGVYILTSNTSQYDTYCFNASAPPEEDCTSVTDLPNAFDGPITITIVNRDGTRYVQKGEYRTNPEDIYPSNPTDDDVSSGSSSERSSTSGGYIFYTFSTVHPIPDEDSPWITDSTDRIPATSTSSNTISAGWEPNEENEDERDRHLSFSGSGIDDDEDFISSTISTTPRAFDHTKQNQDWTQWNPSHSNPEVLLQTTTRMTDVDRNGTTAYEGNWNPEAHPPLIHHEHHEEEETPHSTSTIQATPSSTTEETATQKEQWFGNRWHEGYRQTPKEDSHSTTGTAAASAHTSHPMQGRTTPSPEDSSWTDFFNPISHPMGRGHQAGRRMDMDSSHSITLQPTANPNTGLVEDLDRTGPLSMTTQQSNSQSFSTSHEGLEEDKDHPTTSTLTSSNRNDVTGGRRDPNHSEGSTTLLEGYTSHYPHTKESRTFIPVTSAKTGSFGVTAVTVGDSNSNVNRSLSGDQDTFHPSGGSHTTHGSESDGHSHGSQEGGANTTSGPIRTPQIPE
Chain of FcyR1 (P12314 16-292): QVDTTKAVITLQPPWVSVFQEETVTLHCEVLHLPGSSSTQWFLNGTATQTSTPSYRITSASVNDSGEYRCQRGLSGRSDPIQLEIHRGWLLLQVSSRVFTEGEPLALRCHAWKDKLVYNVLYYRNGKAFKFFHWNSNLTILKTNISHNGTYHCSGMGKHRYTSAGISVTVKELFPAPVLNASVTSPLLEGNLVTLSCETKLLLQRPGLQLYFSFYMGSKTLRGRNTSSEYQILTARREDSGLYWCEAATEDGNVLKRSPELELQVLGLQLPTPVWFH

Kd (FcyR1) [nM] | Kd [1] [nM] | koff [2] [s⁻¹] | kon [2] [M⁻¹ s⁻¹] | koff (Human v6-peptide (human) [3]) [s⁻¹] | kon (Human v6-peptide (human) [3]) [M⁻¹ s⁻¹] | Kd (Human v6-peptide (human) [4]) [nM] | Kd [5] [nM] | Substance
0.18 | – | – | – | – | – | – | – | Herceptin (antibody)
– | 48 | 0.00031 | 6500 | 0.00017 | 190000 | 0.88 | 0.3 | BIWA-4 IgG4 S228P (antibody)
